Data from US20230002472A1 (NEURACLE GENETICS, published 2023).
Changes are numbered by the printed parent chain. Names may count otherwise. Each block holds one binder with its values, some of them ahead of it.

Columns and labels:
[1] = molecular target: T1, tetrameric human PD-L1 (PD-L1-streptavidin-His tag) (human, UniProt Q9NZQ7 19-238, Alexa-488 label (labelled form used in Example 3 ELISA and in all flow cytometry)); test: ELISA, PD-1 protein coated at 200 ng/well, PD-L1 tetramer, anti-streptavidin-HRP
T1 construct: range 19-238; Expressed in HEK293F, purified on Ni-NTA; both are kept as one molecule; also called PD-L1 tetramer; tetrameric PD-L1-streptavidin; not shown: GS linker between PD-L1 and streptavidin; streptavidin fused at the C-terminal of PD-L1 to induce tetramerization; His tag
T1 sequence (Q9NZQ7 19-238): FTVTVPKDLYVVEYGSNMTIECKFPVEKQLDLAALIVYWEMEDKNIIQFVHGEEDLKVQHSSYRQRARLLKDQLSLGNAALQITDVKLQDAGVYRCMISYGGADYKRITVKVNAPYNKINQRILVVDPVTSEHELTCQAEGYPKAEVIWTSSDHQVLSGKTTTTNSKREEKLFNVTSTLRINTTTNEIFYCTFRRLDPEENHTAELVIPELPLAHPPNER

[2] = molecular target: T1, tetrameric human PD-L1 …; test: flow cytometry of E. coli spheroplasts, 12.5 nM tetrameric PD-L1-Alexa488
[3] = molecular target: T1, tetrameric human PD-L1 …; test: flow cytometry of E. coli spheroplasts with tetrameric PD-L1-Alexa488

- binding result [1]: binds
B1: GPD1-CKJ 49: glycosylated form of CKJ 49 (PD1 CKJ 49-His tag, expressed in HEK293F) (receptor)
chain: LDSPDRPWNPPTLSPALLVVTEGDDATFTCSFSNTSESFVLNWYRMSPSNQTDKLAAFPEDRSQPGQDSRFRVTQLPNGRDFHMSVVRARRSDSGTYLCGAISLAPKAQIKESLRAELRVTERRAEVPTAHPSPSPKPAGQFQ
notes: Soluble, glycosylated, purified on Ni-NTA; coated on the ELISA plate; also called pMaz-PD1 CKJ 49-His tag; not shown: His tag

- binding result [2]: binds
B2: PD-1 variant No. 45 (CKJ 45), S36P/C69S/K107N/L114P/F142L, displayed on E. coli (receptor)
chain: B1 chain with L13F, D25N, S36P, S92N, K107N, L114P, K137R, F142L
notes: not shown: NlpA signal peptide / inner membrane anchor of the pMopac12-NlpA-FLAG vector; FLAG tag

- binding result [3]: binds
B3: PD-1 variant JY101, N1S/F13I/L17M/S36P/M46I/C69T/G79R/G100V/L114P/A139L, displayed on E. coli (receptor)
chain: SDSPDRPWNPPTISPAMLVVTEGDNATFTCSFSNTPESFVLNWYRISPSNQTDKLAAFPEDRSQPGQDTRFRVTQLPNRRDFHMSVVRARRNDSGTYLCVAISLAPKAQIKESPRAELRVTERRAEVPTAHPSPSPRPLGQFQ
notes: From the secondary library on CKJ 41T; also called APD1-JY 101; not shown: NlpA signal peptide / inner membrane anchor of the pMopac12-NlpA-FLAG vector; FLAG tag

- binding result [2]: binds
B4: PD-1 variant No. 52 (CKJ 52), F13I/M46I/C69Y, displayed on E. coli (receptor)
chain: B1 chain with L13I, D25N, M46I, S69Y, S92N, K137R
notes: as for B2

- binding result [3]: binds
B5: PD-1 variant CKJ 41Y, S36P/C69Y/L114P, displayed on E. coli (receptor)
chain: B1 chain with L13F, D25N, S36P, S69Y, S92N, L114P, K137R
notes: Made by QuikChange PCR on CKJ 41; not shown: NlpA signal peptide / inner membrane anchor of the pMopac12-NlpA-FLAG vector; FLAG tag

- binding result [3]: binds
B6: PD-1 variant CKJ 41A, S36P/C69A/L114P, displayed on E. coli (receptor)
chain: B1 chain with L13F, D25N, S36P, S69A, S92N, L114P, K137R
notes: as for B5

- binding result [2]: binds
B7: PD-1 variant No. 44 (CKJ 44), F13I/M46I/N50S/C69Y/V127A, displayed on E. coli (receptor)
chain: B1 chain with L13I, D25N, M46I, N50S, S69Y, S92N, V127A, K137R
notes: as for B2

- binding result [2]: binds
B8: PD-1 variant No. 46 (CKJ 46), S36P/C69S/L114P/P132L, displayed on E. coli (receptor)
chain: B1 chain with L13F, D25N, S36P, S92N, L114P, P132L, K137R
notes: as for B2

- binding result [2]: binds
B9: PD-1 variant No. 56 (CKJ 56), S36P/C69S/N92K/L114P/H131R, displayed on E. coli (receptor)
chain: B1 chain with L13F, D25N, S36P, S92K, L114P, H131R, K137R
notes: as for B2

- binding result [2]: binds
B10: PD-1 variant No. 49 (CKJ 49), F13L/N25D/C69S/N92S/R137K, displayed on E. coli (receptor)
chain: B1 chain
notes: as for B2

- binding result [2]: binds
B11: PD-1 variant No. 66 (CKJ 66), N9D/N25D/C69S/N92S/A101V, displayed on E. coli (receptor)
chain: B1 chain with N9D, L13F, A101V, K137R
notes: as for B2

- binding result [2]: binds
B12: PD-1 variant No. 78 (CKJ 78), T12S/S36P/C69S/L114P, displayed on E. coli (receptor)
chain: B1 chain with T12S, L13F, D25N, S36P, S92N, L114P, K137R
notes: as for B2

- binding result [2]: binds
B13: PD-1 variant No. 55 (CKJ 55), N25D/C69S/N92S/A101V, displayed on E. coli (receptor)
chain: B1 chain with L13F, A101V, K137R
notes: as for B2

- binding result [2]: binds
B14: PD-1 variant No. 67 (CKJ 67), N34T/S36P/C69S/L114P, displayed on E. coli (receptor)
chain: B1 chain with L13F, D25N, N34T, S36P, S92N, L114P, K137R
notes: as for B2

- binding result [3]: binds
B15: PD-1 variant CKJ 41G, S36P/C69G/L114P, displayed on E. coli (receptor)
chain: B1 chain with L13F, D25N, S36P, S69G, S92N, L114P, K137R
notes: as for B5

- binding result [3]: binds
B16: PD-1_LDSS variant, F13L/N25D/C69S/N92S, displayed on E. coli (receptor)
chain: B1 chain with K137R
notes: Made by QuikChange PCR on the CKJ 49 vector; not shown: NlpA signal peptide / inner membrane anchor of the pMopac12-NlpA-FLAG vector; FLAG tag

- binding result [3]: binds
B17: PD-1 variant No. 41 (CKJ 41), S36P/C69S/L114P, displayed on E. coli (receptor)
chain: B1 chain with L13F, D25N, S36P, S92N, L114P, K137R
notes: as for B2

- binding result [2]: binds
B18: PD-1 variant CKJ 41T, S36P/C69T/L114P, displayed on E. coli (receptor)
chain: B1 chain with L13F, D25N, S36P, S69T, S92N, L114P, K137R
notes: also called APD1-CKJ 41T; pMopac12-NIpA-PD-1 CKJ 41T-FLAG; not shown: NlpA signal peptide / inner membrane anchor of the pMopac12-NlpA-FLAG vector; FLAG tag

- binding result [2]: binds
B19: PD-1 variant No. 50 (CKJ 50), F13L/N25D/C69S/R88K/N92S/A125S, displayed on E. coli (receptor)
chain: B1 chain with R88K, A125S, K137R
notes: as for B2
